Key:
[1] = test system: mutant CALR neoepitope peptides; assay: Binding of 4D7 to peptides covering regions of the immunizing neopeptide; set-up: species or system human
Method: B. Diluting concentrations of 4D7 to bound full-length 30 amino acid peptide compared to scrambled, C-terminal and N-terminal 11 amino acid peptides as shown in A (n=3). C. Scatchard analysis showing dissociation constant of 4D7 using I^125-labelled and unlabelled 4D7 bound to full-length 30 amino acid peptide (n=3). D. Histogram showing fluorescence intensity of 4D7 conjugated to phycoerythrin at a 4 μg/mL TF-1 TpoR CALR^del 61 vs TF-1 TpoR compared to unstained. E. TF-1 TpoR cells with endogenous wild type CALR cultured in the presence of TPO and 2, 10 or 20 μg/mL 4D7 anti-mutant CALR antibody or 20 μg/mL control IgG antibody (n=3). F. Proliferation curves of factor-independent TF-1 TpoR CALR^del61 cells cultured with 2, 10 or 20 μg/mL 4D7 or 20 μg/mL of control IgG antibody (n=3). G Proliferation curves of factor-independent TF-1 TpoR CALR^del52 cells cultured with 10 or 20 µg/mL 4D7 or 20 μg/mL of control IgG antibody (n=3). Data information: For panels E-G, bars represent standard error of the mean summarizing 3 independent experiments performed in triplicate, with a one-way ANOVA with Bonferroni correction used to determine statistical significance.

[2] = test system: primary CD34+ cells from JAK2 V617F myelofibrosis samples; assay: TPO-independent megakaryocyte differentiation in liquid culture; assay type: cell-based, human; details: 3 out of 3 JAK2 V617F myelofibrosis samples
Excerpt: (§1) Patient samples were collected with informed consent from the South Australian Cancer Research Biobank (SACRB: Adelaide, Australia). Primary CD34+ stem/progenitor cells from peripheral blood samples from patients with JAK2^V617F or CALR mutant myelofibrosis were purified by flow cytometry using CD34-APC antibody, anti-human CD45RA Brilliant Violet 605, anti-CD90 FITC, anti-human CD123-PE, anti-human CD38 PE-Cy7, or with CD34-APC antibody, anti-human CD3 FITC, anti-human CD19-PE (clone H1B19) and anti-human CD14 PE-Cy7.
(§2) For megakaryocyte differentiation assays, CD34+ cells derived from cord blood or from patient peripheral blood mononuclear fractions were plated in Megacult (MegaCult™-C Collagen and Medium with Lipids) with added IL-3 and IL-6 (10 ng/ml) in the presence or absence of 50 ng/mL TPO. Cells were plated at an initial density of 1800 cells/well and cultured for 12 days at 37° C. and 5% CO2. Primary PMF CD34+ cells were cultured in StemCell Pro supplemented with human recombinant SCF (25 ng/mL), IL-6 and IL-9 (10 ng/ml) to allow differentiation into megakaryocytes. CD34+cord blood cells were cultured in 50 ng/mL SCF, 50 ng/ml TPO, 20 ng/ml IL-6 and 20 ng/ml IL-9. Both IgG and 4D7 were added at 20 μg/mL. All cytokines are from Preprotech. Culture media was replenished every 3 days and cells were assessed for megakaryocyte differentiation on day 12 using anti-human CD41/61 PE-Cy7 (Clone A2A9/6) and CountBright beads (Thermo Fisher) to enumerate cell numbers. CD34+obtained from UCB were plated in MethoCult containing cytokines (H4434). Cells were seeded at approximately 100 cells per well and were cultured in the presence of 20 μg/mL 4D7 or control IgG antibody and scored for colony and blast forming units at 12-14 days.

[3] = test system: primary CD34+ cells from patients with CALR mutant myelofibrosis; assay: as above; assay type: cell-based, human
Excerpt: as §1, §2

[4] = test system: healthy cord blood CD34+ cells; assay: cells; assay type: cell-based, human
Method: Umbilical cord blood (UCB) was collected with written consent from full-term deliveries at the Women's Health Unit, Lyell McEwin Hospital (Adelaide, South Australia) or the Department of Obstetrics and Gynecology, Medical University of Graz (Austria) with institutional review board approval (IRB approval: 31-322 ex 18/19; HREC/20/WCHN/65). Samples were processed using a Ficoll-Paque (GE Healthcare) density gradient to isolate mononuclear cells (800×g, room temperature, 30 minutes, deceleration off), followed by red cell lysis (ammonium-chloride-potassium lysing buffer) to remove remaining red blood cells. CD34 enrichment was performed by magnetic cell separation using CD34 Microbead kit (Miltenyi Biotech). Alternatively, purified CD34+ cells from cord-blood were purchased from Lonza. CD34+ cells with a purity above 90% were either cryopreserved or directly cultured in serum-free stem cell retention media (StemSpan SFEMII, Stemcell Technologies, Vancouver, BC, Canada) supplemented with human recombinant SCF, TPO, FLT3, IL-6 (all 20 ng/mL), UM729 (1.75 uM) and StemReginin 1 (SR1, 300 nM). All cytokines and SRI were purchased from PeproTech (Rocky Hill, NJ, USA) whereas UM729 was purchased from Stemcell Technologies.
as §2, with “Primary PMF CD34+ cells were cultured in StemCell Pro supplemented with human recombinant SCF (25 ng/mL), IL-6 and IL-9 (10 ng/ml) to allow differentiation into megakaryocytes. CD34+cord blood cells were cultured in 50 ng/mL SCF, 50 ng/ml TPO, 20 ng/ml IL-6 and 20 ng/ml IL-9. Both IgG and 4D7 were added at 20 μg/mL. All cytokines are from Preprotech.” left out, “CD34+obtained from UCB were plated in MethoCult containing cytokines (H4434).” left out

B1: 4D7: rat monoclonal IgG2a antibody against the mutant CALR neoepitope; VH SEQ ID NO: 5, VL SEQ ID NO: 7 (antibody, listed as Rattus rattus, V domains shown)
VH: QVQLQQSGAELAKPGSSVKISCKASGYTFTNYDMSWIKQRPGQALEWIGAINPGNGVTDYNEKFRGKATLTVDKSSSTAFMQLSSLTPEDTAVYHCAREYRDNYGYFDYWGQGVMVTVSS
VL: DIVLTQTPVSLSVTLGDQASISCRSSQSLEYSDGYTYLDWFLQKPGQSPQLLIYEVSSRFSGVPDRFIGRGSGTDFTLKISRVEPEDLGVYYCFQATHDPFTFGSGTKLEIK
- binding to C-terminal portion of the immunogen ([1]; C-terminal 11 amino acid peptide): no binding
- region of the immunizing neopeptide to which binding was mapped ([1]; peptides covering different regions of the neopeptide): 11 amino acids of the N-terminus
- binding to scrambled peptide ([1]; scrambled peptide): no binding
- inhibition of CD41+CD61+ megakaryocyte progenitors [2]: No significant inhibition
- mean decrease of CD41+ cells across CALR mutant samples ([3]; 20 μg/mL, day 12, normalised to IgG): 55%
- inhibition of CD41+ megakaryocytes compared to IgG control ([3]; additional samples in 2 independent patients (Graz), including type 2 CALR (5 base pair insertion)): evidence of inhibition
- inhibition of TPO-independent growth of CD41+CD61+ megakaryocyte progenitors ([3]; four out of 5 mutant CALR MF patient samples, 20 μg/mL, 12 days, vs IgG): at least 50%
- inhibition of CD41+CD61+ megakaryocyte progenitors ([3]; patient sample with a 34 base pair deletion): weaker inhibition
- effect on normal hematopoiesis [4]: no effect

Source: US20250236667A1, “ANTIBODIES TO MUTANT CALRETICULIN AND USES THEREOF” (CENTRAL ADELAIDE LOCAL HEALTH NETWORK INC, priority 2021, published 2025)
